We go through two molecules from patent US20130195863A1, “Methods and Pharmaceutical Compositions for the Treatment of Bone Density Related Diseases” (priority 2010, published 2013).

In one data set the test system is ROBO1 mRNA. Nature of the data set: Quantitative real-time PCR of ROBO1 transcript after ROBO1 silencing. The class given is cell-based, human. Particulars: clones Sh1.32 and Sh1.33 vs scrambled-transfected SC2.1 and SC2.4 cells. From the text:
(§1) The small hairpins RNA (siRNA) against human Robo1 were designed with the Promega Si Designer tool. The oligos used were as follows: ShRNA-RB1 forward, 5′-ACCgCAgTACTAAgggAA-CAATAAgTTCTCTATTgTTCCCTTAgTACTgCTTTTTC-3′(SEQ ID NO:1); ShRNA-RB1 reverse, 5′-TgCAgAAAAAgCAg-TACTAAgggAACAATAgAgAACTTATTgTTCCCTT-AgTACTg-3′ (SEQ ID NO:2).
(§2) The shRNAs and corresponding scrambles duplex were synthesized with the psiSTRIKE puromycin kit (Promega) under U6 promoter. MDA-MB-231/B02-Frt11 cells were transfected with the siRNA and scrambles duplex with Transfast Transfection Reagent (Promega), according to the manufacturer's instructions. Selection of the clones was obtained after growing the cells for two weeks in the presence of puromycin (2 μg/ml).
(§3) RNA isolation, reverse transcriptase-polymerase chain reaction (RT-PCR), and quantitative real-time PCR (qPCR): RNA was extracted from cells using the Nucleospin RNA II kit (Macherey-Nagel) and cDNA produced from 2 μg total RNA using the MMLV polymerase Promega. qPCR was performed using SYBR Green qPCR Kit (Finnzymes). Probes were purchased from Invitrogen.

The subject of the next data set is ROBO4 mRNA. Nature of the data set: ROBO4 mRNA expression after ROBO1 silencing. The class given is cell-based, human. The settings on record: ROBO1 silencing in MDA-MB-231/B02 cells.
Source text: as §1, §2, §3

The test system of a further data set is ROBO1. Nature of the data set: Confocal microscopy of ROBO1 immunostaining. The class given is cell-based, human. The settings on record: ShRNA-transfected vs scrambled-transfected cells. Here is the method: Confocal microscopy: Subconfluent cell layers were fixed in 4% (w/v) formaldehyde for 30 min, washed three times with PBS and permeabilized for 5 min in PBS containing 0.2% (v/v) Triton-X-100. Permeabilized cells were then incubated with rabbit anti-Robo1 antibody ab7279 (17 μg/ml; AbCam) for 1 h, washed in PBS then incubated with a secondary, FITC-conjugated, anti-rabbit antibody (Sigma). Actin was labeled with phalloidin (Invitrogen) and nuclei were labeled with DAPI. Slides were viewed using confocal microscope Leica TCS-SP2.

The test system of data set [1] is MDA-MB-231/B02 human breast cancer cells. Nature of the data set: Cell invasion assay (Matrigel-coated inserts). It counts as cell-based. Particulars: Sh1.32 and Sh1.33 cells vs scrambled-transfected and parental cells. Here is the method:
Cell migration and invasion assays: Cell migration and invasion assays were performed in 24-well cell culture chambers with 8-μm diameter pore-size inserts (Becton Dickinson), as previously described (Zhang et al., Cancer Res., 67:5821-5830, 2007). Inserts were coated with 100-μl basement membrane Matrigel (3 μg/ml; Becton Dickinson) for 90 min at 37° C. in order to perform cell invasion experiments. Cancer cells (1.5×10^5 cells/ml) were re-suspended in DMEM culture medium containing 0.1% (w/v) bovine serum albumin and 300-μl of this cell suspension were loaded into each insert (upper chamber). The chemoattractant [10% (v/v) fetal calf serum] was placed in the lower chamber (750 μl/well). The plates were incubated for 6 h at 37° C. in a 5% CO2 incubator. After incubation, the inserts were collected carefully, the nonmigrating cells were removed and the migrating cells on the under surface of the inserts were fixed and stained with crystal violet. The membranes were mounted on glass slides and cells were counted under microscope.

Data set [2] has the same test system. The data set is described as follows: Scratch wound assay. Particulars: Sh-transfected vs parental and scrambled-transfected cells; statistically significant. The class given is cell-based. The method, then:
Scratch wound assay: Cells were seeded at a concentration of 1×10^5 cells into 24-well plates and cultured for 24 hours at 37° C. in culture medium containing 10% (v/v) fetal calf serum. After incubation, the culture medium was removed and cells were further cultured in medium containing or not containing 5% (v/v) fetal calf serum, at which time a wound scratch was made on the cell monolayer by using a 20-μl micropipette tip. Cells were fixed, stained with crystal violet, and photographed 24 h later. Alternatively, cell migration was monitored by time-lapse videomicroscopy. Microscopic images were recorded, in a time lapse mode, with a CCD camera attached to a phase contrast microscope (Zeiss Axiovert 200M) and the behaviour of migrating cells was tracked over 24 hours using ImageJ software. Analysis of the images was performed using MetaMorph software.

The subject of data set [3] is breast cancer cells expressing ROBO1 (SC-transfected MDA-MB-231/B02). The data set is described as follows: Effect of Slit2 on cell migration (96-microwell plates). It counts as cell-based, human. Particulars: conditioned medium from Slit2-expressing HEK cells; effect seen in SC-transfected cells as opposed to Sh-transfected (ROBO1-silenced) cells. Here is the method:
The effects of Slit2, […] (RANKL) and osteoprotegerin (OPG) on cell migration were studied using 96-microwell plates (Millipore). Experiments were carried out essentially as described above with minor modifications. Briefly, inserts were loaded with 75 μl of a cell suspension (2×10^5 cells/ml) and 150 μl of chemoattractant was placed in the lower chamber. The chemoattractant consisted of culture medium containing 0.5% (v/v) fetal calf serum with or without RANKL, OPG or the conditioned medium from Slit2-expressing HEK cells. Remaining of the experiments was as described above.

B1: ShRNA-RB1: small hairpin RNA against human Robo1, SEQ ID NO:1 forward and SEQ ID NO:2 reverse, under U6 promoter (nucleic acid)
sense: ACCGCAGTACTAAGGGAACAATAAGTTCTCTATTGTTCCCTTAGTACTGCTTTTTC
antisense: TGCAGAAAAAGCAGTACTAAGGGAACAATAGAGAACTTATTGTTCCCTTAGTACTG
modifications: target site or template, no part of the molecule
For the molecule B1, the “ROBO1 transcript down regulation” value in the data set with ROBO1 mRNA stood at 90%. Moreover, the “effect on ROBO4 mRNA expression levels” value in the data set with ROBO4 mRNA is listed as “did not affect”. In addition, the “ROBO1 immunostaining at the plasma membrane” value in the data set on ROBO1 was “totally disappeared”. Also, the invasion result in data set [1] is “substantial gain in invasion”. The wound closure result in data set [2] is “faster wound closure”.

B2: Slit2: natural ligand of ROBO1; tested as conditioned medium from HEK cells stably expressing human Slit-2 (protein)
chain: QCSCSGSTVDCHGLALRSVPRNIPRNTERLDLNGNNITRITKTDFAGLRHLRVLQLMENKISTIERGAFQDLKELERLRLNRNHLQLFPELLFLGTAKLYRLDLSENQIQAIPRKAFRGAVDIKNLQLDYNQISCIEDGAFRALRDLEVLTLNNNNITRLSVASFNHMPKLRTFRLHSNNLYCDCHLAWLSDWLRQRPRVGLYTQCMGPSHLRGHNVAEVQKREFVCSGHQSFMAPSCSVLHCPAACTCSNNIVDCRGKGLTEIPTNLPETITEIRLEQNTIKVIPPGAFSPYKKLRRIDLSNNQISELAPDAFQGLRSLNSLVLYGNKITELPKSLFEGLFSLQLLLLNANKINCLRVDAFQDLHNLNLLSLYDNKLQTIAKGTFSPLRAIQTMHLAQNPFICDCHLKWLADYLHTNPIETSGARCTSPRRLANKRIGQIKSKKFRCSAKEQYFIPGTEDYRSKLSGDCFADLACPEKCRCEGTTVDCSNQKLNKIPEHIPQYTAELRLNNNEFTVLEATGIFKKLPQLRKINFSNNKITDIEEGAFEGASGVNEILLTSNRLENVQHKMFKGLESLKTLMLRSNRITCVGNDSFIGLSSVRLLSLYDNQITTVAPGAFDTLHSLSTLNLLANPFNCNCYLAWLGEWLRKKRIVTGNPRCQKPYFLKEIPIQDVAIQDFTCDDGNDDNSCSPLSRCPTECTCLDTVVRCSNKGLKVLPKGIPRDVTELYLDGNQFTLVPKELSNYKHLTLIDLSNNRISTLSNQSFSNMTQLLTLILSYNRLRCIPPRTFDGLKSLRLLSLHGNDISVVPEGAFNDLSALSHLAIGANPLYCDCNMQWLSDWVKSEYKEPGIARCAGPGEMADKLLLTTPSKKFTCQGPVDVNILAKCNPCLSNPCKNDGTCNSDPVDFYRCTCPYGFKGQDCDVPIHACISNPCKHGGTCHLKEGEEDGFWCICADGFEGENCEVNVDDCEDNDCENNSTCVDGINNYTCLCPPEYTGELCEEKLDFCAQDLNPCQHDSKCILTPKGFKCDCTPGYVGEHCDIDFDDCQDNKCKNGAHCTDAVNGYTCICPEGYSGLFCEFSPPMVLPRTSPCDNFDCQNGAQCIVRINEPICQCLPGYQGEKCEKLVSVNFINKESYLQIPSAKVRPQTNITLQIATDEDSGILLYKGDKDHIAVELYRGRVRASYDTGSHPASAIYSVETINDGNFHIVELLALDQSLSLSVDGGNPKIITNLSKQSTLNFDSPLYVGGMPGKSNVASLRQAPGQNGTSFHGCIRNLYINSELQDFQKVPMQTGILPGCEPCHKKVCAHGTCQPSSQAGFTCECQEGWMGPLCDQRTNDPCLGNKCVHGTCLPINAFSYSCKCLEGHGGVLCDEEEDLFNPCQAIKCKHGKCRLSGLGQPYCECSSGYTGDSCDREISCRGERIRDYYQKQQGYAACQTTKKVSRLECRGGCAGGQCCGPLRSKRRKYSFECTDGSSFVDEVEKVVKCGCTRCVS
As for B2, in data set [3], the “migration of SC-transfected cells induced by FCS” value is given as “inhibited the migration”.
